Assay results: patent US20030100489

Tests used:
[1] = target: T1, GST-p16 fusion protein
T1 chain: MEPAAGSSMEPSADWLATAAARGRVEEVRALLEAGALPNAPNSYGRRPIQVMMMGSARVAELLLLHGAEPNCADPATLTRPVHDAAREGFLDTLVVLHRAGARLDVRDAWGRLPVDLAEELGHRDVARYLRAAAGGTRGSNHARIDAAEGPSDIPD

[2] = target: T2, p15
T2 chain: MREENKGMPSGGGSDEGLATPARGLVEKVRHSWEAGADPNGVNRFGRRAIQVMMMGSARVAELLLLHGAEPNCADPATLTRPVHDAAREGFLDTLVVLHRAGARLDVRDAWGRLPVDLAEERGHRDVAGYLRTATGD

[3] = target: T3, p16
T3 chain: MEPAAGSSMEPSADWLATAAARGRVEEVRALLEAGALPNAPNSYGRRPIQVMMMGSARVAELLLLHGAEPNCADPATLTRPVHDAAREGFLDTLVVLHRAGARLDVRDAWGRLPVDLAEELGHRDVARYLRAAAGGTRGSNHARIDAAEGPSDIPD

[4] = target: p21, P38936
Chain of p21, P38936 (P38936 whole entry): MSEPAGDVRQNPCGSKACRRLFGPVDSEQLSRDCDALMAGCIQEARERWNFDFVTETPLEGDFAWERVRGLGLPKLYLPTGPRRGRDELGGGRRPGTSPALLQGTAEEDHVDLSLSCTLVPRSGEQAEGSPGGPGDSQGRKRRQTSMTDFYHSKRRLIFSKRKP

[5] = target: T4, GST-p15
T4 chain: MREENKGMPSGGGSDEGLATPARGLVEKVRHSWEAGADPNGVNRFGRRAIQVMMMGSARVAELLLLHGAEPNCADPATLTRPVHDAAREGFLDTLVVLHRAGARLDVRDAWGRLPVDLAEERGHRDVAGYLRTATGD

[6] = target: p27

Protein	kinase activity of CDK4 (GST-RB phosphorylation) [1]	CDK4 kinase activity (GST-RB phosphorylation) [2]	CDK4 kinase activity (GST-RB phosphorylation) [3]	ability of CDK4 to phosphorylate RB [3]	RB phosphorylation by cyclin D/CDK4 (GST-RB substrate) [4]	kinase activity of CDK4 (GST-RB phosphorylation) [5]	CDK4 kinase activity (GST-RB phosphorylation) [6]	CDK4 kinase activity (GST-RB phosphorylation) [4]
CDK4 (wild-type) (protein) MATSRYEPVAEIGVGAYGTVYKARDPHSGHFVALKSVRVPNGGGGGGGLPISTVREVALLRRLEAFEHPNVVRLMDVCATSRTDREIKVTLVFEHVDQDLRTYLDKAPPPGLPAETIKDLMRQFLRGLDFLHANCIVHRDLKPENILVTSGGTVKLADFGLARIYSYQMALTPVVVTLWYRAPEVLLQSTYATPVDMWSVGCIFAEMFRRKPLFCGNSEADQLGKIFDLIGLPPEDDWPRDVSLPRGAFPPRGPRPVQSVVPEMEESGAQLLLEMLTFNPHKRISAFRALQHSYLHKDEGNPE	Like p16, the p15-GST fusion protein was able to inhibit the kinase activity of CDK4	upon addition of increasing amounts of either p16- or p15containing lysate to the CDK4/cyclin D mixture, the wild-type CDK4 was inhibited	upon addition of increasing amounts of either p16- or p15containing lysate to the CDK4/cyclin D mixture, the wild-type CDK4 was inhibited	In response to increasing amounts of p16, corresponding decreases in the ability of CDK4 to phosphorylate RB was observed	Addition of increasing amounts of p21 resulted in the accumulation of cyclin D/CDK4/p21 ternary complexes with a corresponding inhibition of RB phosphorylation	Like p16, the p15-GST fusion protein was able to inhibit the kinase activity of CDK4	–	–
CDK4 Arg24-Cys mutant (protein) MATSRYEPVAEIGVGAYGTVYKACDPHSGHFVALKSVRVPNGGGGGGGLPISTVREVALLRRLEAFEHPNVVRLMDVCATSRTDREIKVTLVFEHVDQDLRTYLDKAPPPGLPAETIKDLMRQFLRGLDFLHANCIVHRDLKPENILVTSGGTVKLADFGLARIYSYQMALTPVVVTLWYRAPEVLLQSTYATPVDMWSVGCIFAEMFRRKPLFCGNSEADQLGKIFDLIGLPPEDDWPRDVSLPRGAFPPRGPRPVQSVVPEMEESGAQLLLEMLTFNPHKRISAFRALQHSYLHKDEGNPE	–	the mutant CDK4 was relatively unaffected	the mutant CDK4 was relatively unaffected	–	–	–	the particular mutation, Arg24-Cys, did not effect the binding or inhibitory ability of either of those proteins	the particular mutation, Arg24-Cys, did not effect the binding or inhibitory ability of either of those proteins
